Experimental data as given in patent publication US8620595B2, “Methods for determining the retention of peptides in reverse phase chromatography using linear solvent strength theory” (University of Manitoba, priority 2010, dated 2013).
Values joined by “and” are separate entries in the source; they are usually repeats but may differ in a detail not shown here. Equal entries are not always repeated.

Assay: Determination of S from retention time shift Δ relative to P3 at two gradient slopes, nano-RP-HPLC MS of spiked tryptic digest
Assay type: physicochemical
Conditions: for Slope (experimental): LC-MS runs of model peptide mixture; for experimental S-value: model peptide mixture (tryptic digest of bovine proteins), 0.75 and 0.1875% acetonitrile per minute gradients, S from Δ vs. S curve of S-calibrating peptides
Protocol: Proteins and protein digestion. Tryptic digests of two different protein mixtures were utilized. The “test peptide mixture” contained human proteins: albumin, transferrin, fibrinogen. The “model peptide mixture” contained bovine proteins: albumin, transferrin, fibrinogen, catalase. Equimolar mixtures of the proteins were prepared, reduced with DTT, alkylated with iodoacetamide and digested with sequencing-grade modified trypsin (Promega, Madison, Wis.). Prior to nano-LC MS/MS analysis, mixtures were diluted with buffer A (0.1% formic acid in water) and spiked with the 6 standard peptides P1-P6^24 for test mixture and the set of 11 model peptides (described elsewhere^23) for a model mixture. All dilutions were performed to provide an injection of ˜100 fmole of each component into the nanoRP-HPLC MS system.
Chromatography. All chromatographic experiments were conducted at a controlled temperature of 22-23° C. For isocratic measurement of the slope values, a micro-Agilent 1100 Series system (Agilent Technologies, Wilmington, Del.), was used with a 1 mm×100 mm 5 μm Luna C18(2) (Phenomenex, Torrance, Calif.) column and a UV detector operated at 214 nm. Both eluents A (water) and B (acetonitrile) contained 0.1% formic acid as ion-pairing modifier. Stock solutions of the 11 standard peptides (˜1 mg/ml) were prepared by dissolving each peptide in 1 ml of 0.1% FA in water or a 20% acetonitrile solution. Ten microliters of sample was injected. Individual peptides were diluted to provide ˜0.5-1 μg injection of each component using a 10 μl loop. The dead volume of the column and connecting tubings was determined by injecting a non-retained compound (water) and measuring the elution time of the negative peak at a 150 μL/min flow rate. Retention factors for isocratic elution were calculated using the formula: k=(tR−t0)/t0c; where tR is the retention time, t0 is the system (column and tubings) dead time, and t0c is the column dead time. Additional details of measuring S-values via constructing log k vs. φ plots are provided elsewhere.^24 The nano-LC MS/MS experiments were conducted using splitless Tempo LC system (Eksigent, Dublin, Calif.) with 20 μL sample injection via a 300 μm×5 mm PepMap100 (Dionex, Sunnyvale, Calif.) trap-column and a 100 μm×200 mm analytical column packed with 5 μm Luna C18(2) (Phenomenex, Torrance, Calif.). Tryptic digests of the mixtures were spiked with calibrating peptides (see Table 1) as described above, injected on the trap-column using buffer A as a carrier and separated using 0.1875, 0.375 and 0.75 percent acetonitrile per minute linear gradients starting from 0.5% acetonitrile at 500 nL/min flow rate. The composition of both eluents A and B was identical to one described above for normal-flow system. Gradient programs consisted of a 0.5-40% linear increase of buffer B in 213.2, 106.6 and 53.3 minutes, respectively. After each run the gradient columns were washed with 80% B for 3 minutes and equilibrated with the starting A:B ratio for 18 minutes.
Mass spectrometry. A QStar Elite mass spectrometer (Applied Biosystems, Foster City, Calif.) equipped with a MicrolonSpray II source was used in standard MS/MS information dependent acquisition (IDA) mode for LC-ESI analyses. Protein identification was performed using Protein Pilot 3.0 (Applied Biosystems, Foster City, Calif.) with a restricted database containing target protein sequences and the sequences of standard peptides. Retention times of identified species (peak maxima) were assigned manually.
These two ways of measurement have been combined to provide a highly accurate and fast way of determining S for an extensive sets of peptides (see FIG. 3). First, precise isocratic measurement of S is performed in normal flow conditions with UV detection for a set of synthetic “S-calibrating” peptides. […]

Substance | Slope (experimental) (experimental S value) | Slope (experimental) (experimental S, formic acid) | experimental S-value (formic acid)
AAANFFSASCVPCADQSSFPK | 35.1 | – | –
AAQKPDVLTTGGGNPVGDK | – | 41.223 | –
AAQKPDVLTTGGGNPVGDKLNSLTVGPR | – | 41.986 | –
AEFVEVTK | 29.046 | – | –
AFALECIR | 26.057 | – | –
AIQISYNPDQPSKPNNIESATK | 42.444 | – | –
ALEHKVDLEDYK | 39.365 | – | –
ALLEMQQTK | – | 26.288 | –
AMTNLR | 32.841 | – | –
ANEGLTWNSLK | 27.455 | – | –
ANEGLTWNSLKDK | – | 32.686 | –
APVDAFK | – | 26.378 | –
APVDAFKECHLAQVPSHAVVAR | 46.264 | – | –
ARPATATVGQK | – | 51.675 | –
AVLKDGPLTGTYR | – | 35.435 | –
AVVQDPALKPLALVYGEATSR | – | 35.627 | –
AWSVAR | – | 26.993 | –
CACSNHEPYFGYSGAFK | – | 35.846 | –
CCAADDKEACFAVEGPK | – | 38.207 | –
CCTESLVNR | 33.998 | – | –
CGLVPVLAENR | – | 26.128 | –
CGLVPVLAENRK | – | 30.745 | –
CGLVPVLAENYK | 27.604 | – | –
CLASIAK | 30.212 | – | –
CLMEGAGDVAFVK | 30.666 | – | –
CLQDGAGDVAFVK | 31.382 | – | –

Substance | Slope (experimental) (experimental S value) | Slope (experimental) (experimental S, formic acid) | experimental S-value (formic acid)
CLVEK | – | 27.661 | –
DALLFPSFIHSQK | – | 29.523 | –
DALLFPSFIHSQKR | – | 30.728 | –
DAQLFIQK | 24.282 | – | –
DDPHACYSTVFDK | – | 32.575 | –
DDPHACYSTVFDKLK | – | 35.483 | –
DDSPDLPK | – | 30.875 | –
DFPIANGER | – | 26.539 | –
DGPLTGTYR | – | 28.947 | –
DGTRKPVTDAENCHLAR [tryptic peptide of the model peptide mixture, 5 positively charged groups] | 50.359 | – | 50.4
DIQYLPILK | 25.291 | – | –
DKDDFFTR | – | 25.342 | –
DKPDNFQLFQSPHGK | – | 32.597 | –
DKVVQLEANCQEPCQDTVK | 42.675 | – | –
DLEEGIQTLMGR | – | 26.684 | –
DLGEEHFK | – | 32.597 | –
DLLFK [tryptic peptide detected in the model peptide mixture] | – | 18.223 | 18.2
DLLFR [tryptic peptide detected in the model peptide mixture] | – | 18.36 | 18.4
DNCCILDER | – | 28.077 | –
DNPQTHYYAVAVVK | 34.815 | – | –
DNPQTHYYAVAVVKK | 39.552 | – | –
DQLVDMK | – | 25.899 | –
DQTVIQNTDGNNNEAWAK | – | 34.721 | –
DSADGFLK | – | 22.49 | –
DSADGFLKIPSK | – | 30.089 | –
DSALGFLR [tryptic peptide detected in the model peptide mixture] | – | 21.784 | 21.8

Substance | Slope (experimental) (experimental S value) | Slope (experimental) (experimental S, formic acid) | experimental S-value (formic acid)
DSLFNYQK | – | 24.58 | –
DTDFKLNELR | 30.459 | – | –
ECCDKPLLEK | – | 35.555 | –
ECCHGDLLECADDR | – | 34.957 | –
ECCHGDLLECADDRADLAK | 40.256 | – | –
ECHLAQVPSHAVVAR | 44.148 | – | –
ECVPNSNER | – | 44.66 | –
EDGGGWWVYNR | – | 23.696 | –
EDGSDPPSGDFLTEGGGVR | – | 30.812 | –
EDLIWK [tryptic peptide detected in the model peptide mixture] | 21.902 | – | 21.9
EEGSVSSGTKQEFHTGK | – | 48.449 | –
EGFGHLSPTGNTEFWLGNEK | 36.558 | – | –
EKYYGYTGAFR | 34.957 | – | –
ELLIDNEK | – | 25.018 | –
ELPDPQESIQR | 34.299 | – | –
ENFEVLCK | 27.436 | – | –
ENVLR | 31.531 | – | –
EPISVSSQQMLK | 33.2 | – | –
EPYFGYSGAFK | 28.713 | – | –
ESGLYFIRPLK | 30.232 | – | –
ESKPPDSSKDECMVK | – | 48.845 | –
ESPQTHYYAVAVVK | 36.262 | – | –
ETGWPFCSDEDWNTK | – | 29.105 | –
ETTVFENLPEK | 29.323 | – | –
ETTVFENLPEKADR | 34.533 | – | –
ETYGDMADCCEK | 36.36 | – | –

Substance | Slope (experimental) (experimental S value) | Slope (experimental) (experimental S, formic acid) | experimental S-value (formic acid)
EYEATLEECCAK | 35.459 | – | –
FCLFK [tryptic peptide detected in the model peptide mixture] | 21.68 | – | 21.7
FDEFFSAGCAPGSPR | – | 28.654 | –
FFSASCVPCIDR | 32.333 | – | –
FKDLGEEHFK | 38.336 | – | –
FLQEIYNSNSQK | 30.666 | – | –
FNSANDDNVTQVR | 38.415 | – | –
FPTIPLSR | 27.325 | – | –
FSTVAGESGSADTVRDPR | 44.208 | – | –
FYTEDGNVVOLVGNNTPIFFIR (FYTEDGNWDLVGNNTPIFFIR) | – | 31.467 | –
GACLLPK | – | 25.811 | –
GAGAFGYFEVTHDITR | – | 33.608 | –
GDKELLIDNEK | – | 32.311 | –
GDKVTALYEGFTVQNEANK | – | 35.1 | –
GDSVSQGTGLAPGSPR | 38.571 | – | –
GEADALNLDGGYIYTAGK | – | 31.382 | –
GEGENQCACSSR [moderately sized, hydrophilic tryptic species of the model peptide mixture] | – | 54.005 | 54.1 and 51.7
GGWTVIQNR | 26.957 | – | –
GLIDEVDQDFTSR | 30.089 | – | –
GNLDDFFHR | – | 26.957 | –
GRQNQVQDNENVVNEYSSHLEK | – | 42.444 | –
GSNFQLDQLQGR | 30.314 | – | –
GTGKECVPNSNER | – | 48.911 | –
GYLAVAVVK | 27.811 | – | –
HLVDEPQNLIK | 35.894 | – | –
HMDGYGSHTFK | – | 41.758 | –

Substance | Slope (experimental) (experimental S value) | Slope (experimental) (experimental S, formic acid) | experimental S-value (formic acid)
HQLYIDETVK | – | 34.369 | –
HSTVFDNLPNPEDR | – | 34.439 | –
HSTVFDNLPNPEDRK | – | 36.807 | –
IEILR | 24.216 | – | –
IETMR | 37.108 | – | –
IHLISTQSTIPYVLR | 35.386 | – | –
IIPLNR | 28.596 | – | –
ILESGPFVSCVK | 29.323 | – | –
ILESGPFVSCVKK | 34.299 | – | –
ILNKQQDDFGK | 40.011 | – | –
INLLQK | – | 24.664 | –
IPSKVDSALYLGSR | 35.773 | – | –
IQALLDK | 26.395 | – | –
IQALLDKYNEEKPK | 40.311 | – | –
IQALLDKYNEEKPKN | 40.038 | – | –
IQLEDWNGR | 27.849 | – | –
IRPYFPEQ | 28.791 | – | –
ISQLTNMGPTK | 33.29 | – | –
IVNLR | 29.724 | – | –
KANEGLTWNSLK | – | 31.085 | –
KANEGLTWNSLKDK | – | 35.507 | –
KDMDKVETFLR | 34.768 | – | –
